System: MS2 coat protein
Test: apparent KD of MS2 coat protein; designed switch direction (-1 OFF switch, 1 ON switch): -1; higher = weaker reporter binding
Summary of the method: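 The apparent KD reported per design is the median over clusters of curve fits to normalised cluster fluorescence. The RNA switches were transcribed on Illumina chips by stalled E. coli RNA polymerase. SNAP-549-labelled MS2 coat protein was titrated from 0.7 or 1.5 nM, doubling up to 3 µM, in Tris-HCl pH 7.5 buffer containing KCl, MgCl2, BSA, DTT, tRNA and Tween-20, with no input, 200 uM small-molecule ligand, or an oligonucleotide input.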

[1] = input ligand: microRNA oligo, concentration not stated
[2] = Eterna round: R95, input ligand: microRNA oligo, concentration not stated
[3] = Eterna round: R95, input ligand: FMN 200 uM
[4] = Eterna round: R95, input ligand: none

GGCGGACAUGAGGAUCACCCAUGUUAGGAUAUGGUGCGAUCGUCGAUAGACGAUAGCACCAGAAGGGACACGCC [Mat - Exclusion 1 - Eli Mod - D2] (Eterna round: R97, puzzle: Exclusion 1)
apparent KD of MS2 coat protein (input ligand: FMN 200 uM): 16.6 nM
apparent KD of MS2 coat protein (input ligand: none): 16.9 nM

GAUUAGCAAGCGAGAUCCCACAUGAGGAUCACCCAUGUGCUCGUCUUAUAAAGUACUGUGACGAAAGUCACGGUACA [Mat - Sensor, turn-off var - Eli Mod - D11] (Eterna round: R97, puzzle: Sensor, turn-off variant 1)
apparent KD of MS2 coat protein (input ligand: FMN 200 uM): 17.2 nM
apparent KD of MS2 coat protein (input ligand: none): 14.8 nM

UAAAGUAUAUAGGAUAUCUAGCUGGAAACAGCUAGAGAAGGAUGUACAUGAGGAUCACCCAUGUAAAACCUCAA [Ex6/17-A1] (Eterna round: R97, puzzle: Exclusion 6)
apparent KD of MS2 coat protein (input ligand: FMN 200 uM): 45.4 nM
apparent KD of MS2 coat protein (input ligand: none): 18.3 nM

GCAGACGUAGUGAGGAUAUGCUCUACCUCGGUAGAGCAGAAGGCACAUGAGGAUCACCCAUGUGACUCCUCAUC [Omei Ex4B B18] (Eterna round: R97, puzzle: Brourd's mod of Exclusion 4)
apparent KD of MS2 coat protein (input ligand: FMN 200 uM): 49.2 nM
apparent KD of MS2 coat protein (input ligand: none): 20.1 nM

AUUAAACAUGUAGGAUAUGCGUGGCAAAGCUAUGCAGAAGGACAUGAGGAUCACCCAUGUAAAAGCGUCUGCGUACAGAUGCAA [Mat - Exclusion NG 1 - Mod of JL - D86] (Eterna round: R96, puzzle: Exclusion NG 1)
apparent KD of MS2 coat protein (input ligand: FMN 200 uM): 314 nM
apparent KD of MS2 coat protein [1]: 30.7 nM
apparent KD of MS2 coat protein (input ligand: none): 41.3 nM

UUAAUUAGCAGACUAAUACCUCACAUGAGGAUCACCCAUGUGCAGGAUAUCAGCUCGUUUAGAGCUGAGAAGGGCACUGUCUGC [ExNG3/12-A2] (Eterna round: R96, puzzle: Exclusion NG 3)
apparent KD of MS2 coat protein (input ligand: FMN 200 uM): 17.9 nM
apparent KD of MS2 coat protein [1]: 8.72 nM
apparent KD of MS2 coat protein (input ligand: none): 11.3 nM

CGUUGGCGAGGAUAUACAUGAGGAUCACCCAUGUGAGAGAUACUAGUGAGGUCGAUUAGUAGAAGGCGCUGACG [Mat X3R4 m1] (Eterna round: R97, puzzle: Exclusion 3)
apparent KD of MS2 coat protein (input ligand: FMN 200 uM): 949 nM
apparent KD of MS2 coat protein (input ligand: none): 34.9 nM

UUCCGGCAUGUAGGAUAUGGAUCCGAUUAGGAUUUAGAAGGACAUGAGGAUCACCCAUGUGCAUUUAAUUAGUCAUUACCGUUU [EXclNG1-LROPPY06] (Eterna round: R96, puzzle: Exclusion NG 1)
apparent KD of MS2 coat protein [1]: 34.4 nM

CAGCUGAAUGUCAGGAUAUCUAGAGCGAUAGCUCUAGAGAAGGGACAUGAGGAUCACCCAUGUCACUCCAGCUG [BmEx4/3-B4] (Eterna round: R97, puzzle: Brourd's mod of Exclusion 4)
apparent KD of MS2 coat protein (input ligand: FMN 200 uM): 29.5 nM
apparent KD of MS2 coat protein (input ligand: none): 18.2 nM

AGUUGGCGAGGAUAUACAUGAGGAUCACCCAUGUGAGAGAUACUAGUGAGGUCGAUUGGUAGAAGGCGCUGACA [Mat - Exclusion 3 - Mod of JL D80] (puzzle: Exclusion 3)
apparent KD of MS2 coat protein [2]: 91.5 nM

UUGUUGUAUGUAGGAUAUGCAUAUUAUUAUUAUGCAGAAGGACAUGAGGAUCACCCAUGUGUAUUAUUAUUAUAUAUUAUAUAU [Title] (Eterna round: R96, puzzle: Exclusion NG 1)
apparent KD of MS2 coat protein [1]: 20 nM

CUUGCGGACAAAGGAUAUUGCGGUGACCGGCUCGGCGUACCGAGCCUACAUGAGGAUCACCCAUGUAAGAAGGUUGACGCUGGU [JL ViennaUCT Qudice mod 4] (Eterna round: R96, puzzle: Exclusion NG 2)
apparent KD of MS2 coat protein (input ligand: FMN 200 uM): 106 nM
apparent KD of MS2 coat protein [1]: 20 nM
apparent KD of MS2 coat protein (input ligand: none): 27.6 nM

AAAAUGGCAGGAUAUACAUGAGGAUCACCCAUGUUCGUCUUUACAUGUAAAAUGCUCUGUAGAAGGGCCUCGAA [Quised] (Eterna round: R97, puzzle: Exclusion 3)
apparent KD of MS2 coat protein (input ligand: FMN 200 uM): 47.1 nM
apparent KD of MS2 coat protein (input ligand: none): 21.9 nM

CUGGUCCGAGGAUAUAUUAUGUGAUACAUGAGGAUCACCCAUGUUAUAUGAUGGAUAUAAAUAGAAGGCGGACUAG [Mat - Exclusion 5 - JL mod - D66] (puzzle: Exclusion 5)
apparent KD of MS2 coat protein [3]: 48.6 nM
apparent KD of MS2 coat protein [2]: 42.4 nM
apparent KD of MS2 coat protein [4]: 35.8 nM

UUUUAACAUGAGGAUCACCCAUGUGAGGAUAUCGUAUUUUAUAUUAAUAUUAAUAAAACGAGAAGGCACAUUUU [JMF 9] (puzzle: Exclusion 1)
apparent KD of MS2 coat protein [3]: 28.4 nM
apparent KD of MS2 coat protein [2]: 25.4 nM
apparent KD of MS2 coat protein [4]: 29.5 nM

UAAUUGAUUAAUAGAUUAUACAUGAGGAUCACCCAUGUAGGUCCUACGUGCCAUUUAAGCAGCUCGUCUUAUUCCCA [Sensor-V1 #68] (Eterna round: R97, puzzle: Sensor, turn-off variant 1)
apparent KD of MS2 coat protein (input ligand: FMN 200 uM): 41.8 nM
apparent KD of MS2 coat protein (input ligand: none): 49 nM

AAUGUGUGAGGAUAUUAAUUGUAAUUGAAUAGAAUUAUGAUUGAGAAGGCACAUGAGGAUCACCCAUGUUCCAA [JR_Ex4_Sub082] (Eterna round: R97, puzzle: Exclusion 4)
apparent KD of MS2 coat protein (input ligand: FMN 200 uM): 187 nM
apparent KD of MS2 coat protein (input ligand: none): 31.2 nM

AACGUACGUCGAGGAUAUGACGAGAAAUAUGAGUCAGAAGGCGACUGGUACAUGAGGAUCACCCAUGUUGCGACCAUGUGGCUU [Eternabot solution 23] (Eterna round: R96, puzzle: Exclusion NG 1)
apparent KD of MS2 coat protein (input ligand: FMN 200 uM): 53.7 nM
apparent KD of MS2 coat protein [1]: 13.4 nM
apparent KD of MS2 coat protein (input ligand: none): 17.9 nM

CCCAGUUAGGAAGGAUAUUGUACAUGAGGAUCACCCAUGUAAUAAAUGAGGAUCUCGGAUGUAUACAAGAAGGUCCGGAUAGGC [Ostracism 10 - Jieux - Exclusion NG 2] (Eterna round: R96, puzzle: Exclusion NG 2)
apparent KD of MS2 coat protein [1]: 58.5 nM

ACUCGUAACUAGGAUAUCCGAAAUAAACGAGGAGGAGAAGGAGUUACAUGAGGAUCACCCAUGUGAUAUAAAGA [Edtisoed] (puzzle: Exclusion 6)
apparent KD of MS2 coat protein [3]: 47 nM
apparent KD of MS2 coat protein [2]: 15.3 nM
apparent KD of MS2 coat protein [4]: 17.6 nM

GAUCCGAUUGUCAGGAUAUUCAAAACGGCGCAAAAGAAGAAGGGACAUGAGGAUCACCCAUGUAUACGCCACCA [Usisbima] (Eterna round: R97, puzzle: Brourd's mod of Exclusion 4)
apparent KD of MS2 coat protein (input ligand: FMN 200 uM): 36.7 nM
apparent KD of MS2 coat protein (input ligand: none): 332 nM

AGGAGCAGAGGGAGAUCCAACAUGAGGAUCACCCAUGUCUCAUAAGCUUUUUGCUCAUCUUAUUGUACCUUGGUGCU [Mat - Sensor v3 - turn-off var 1 - JL Mod - D26] (puzzle: Sensor v3, turn-off variant 1)
apparent KD of MS2 coat protein [3]: 35.7 nM
apparent KD of MS2 coat protein [2]: 14.3 nM
apparent KD of MS2 coat protein [4]: 37.9 nM

AGAAGUAGUAUCCGAUCCUACAUGAGGAUCACCCAUGUAGCUAGACGUGCACGCGAUGCUCGUCAGACUACCAGAUG [salish99_TOv1_r3_030] (puzzle: Sensor v3, turn-off variant 1)
apparent KD of MS2 coat protein [3]: 156 nM
apparent KD of MS2 coat protein [2]: 205 nM
apparent KD of MS2 coat protein [4]: 405 nM

AAGAAACAUGAGGAUCACCCAUGUGAGGAUAUGAGUAAGAAAAGAAAAGAAAGAAGAUUCAGAAGGCACAAAGG [salish99-ex1_r3_057] (puzzle: Exclusion 1)
apparent KD of MS2 coat protein [3]: 94.7 nM
apparent KD of MS2 coat protein [2]: 58.1 nM
apparent KD of MS2 coat protein [4]: 73.2 nM

CAUUACUGCAAGCUUUGGGACAUGAGGAUCACCCAUGUUCGUCUUAUUGAUCUAGGUACGCUGACGUACCUAGAUCU [JL-sv1-2.27 Brourd mod] (puzzle: Sensor v3, turn-off variant 1)
apparent KD of MS2 coat protein [3]: 17 nM
apparent KD of MS2 coat protein [2]: 28.9 nM
apparent KD of MS2 coat protein [4]: 15.4 nM

AUCUAGUCAGGAUAUACGAACCGAUGAAUCGGACGGAACGAACAUGAGGAUCACCCAUGUAGAAGGGACACUCA [Candy Rainbow 2] (puzzle: Exclusion 2)
apparent KD of MS2 coat protein [2]: 142 nM

GUGUACUGAGGAUAUACAUGAGGAUCACCCAUGUGAAUAAGAUAGAAUAAGAUAAAGUGUAGAAGGCAGAGUGU [Excluse me!!! 2 - Jieux - Exclusion 3] (puzzle: Exclusion 3)
apparent KD of MS2 coat protein [2]: 36.9 nM

UCGCUGCGAGGAUAUACAUGAGGAUCACCCAUGUACGGGUCCGGGUCUUCGUCUAUUGGUAGAAGGCGCAGUGA [JL Laongeedie mod 8] (puzzle: Exclusion 3)
apparent KD of MS2 coat protein [2]: 43.6 nM

ACAUGAGGAUCACCCAUGUCCGGCUGGUCUGUUCCGGUUGUCGAGGAUAUAGUUCGGUGUUCGCGCUAGAAGGUGGGAGCUGGA [Aenatbe mod 54] (Eterna round: R96, puzzle: Exclusion NG 3)
apparent KD of MS2 coat protein (input ligand: FMN 200 uM): 186 nM
apparent KD of MS2 coat protein [1]: 103 nM
apparent KD of MS2 coat protein (input ligand: none): 136 nM

UGUAAGGCAGAGGAUAUGGUUACUAGACGAGUACCAGAAGGCUGCACAUGAGGAUCACCCAUGUGAAAUCCACU [Eternabot (L1) Solution 72] (Eterna round: R97, puzzle: Exclusion 6)
apparent KD of MS2 coat protein (input ligand: FMN 200 uM): 80.7 nM
apparent KD of MS2 coat protein (input ligand: none): 34.7 nM

GGAUCGAAUGUGAGGAUAUGCAGGUCCUUGGAUCUGCAGAAGGCACAUGAGGAUCACCCAUGUGACCUAGAUCC [Mat - Exclusion 4 - Eli Mod - D44] (Eterna round: R97, puzzle: Brourd's mod of Exclusion 4)
apparent KD of MS2 coat protein (input ligand: FMN 200 uM): 268 nM
apparent KD of MS2 coat protein (input ligand: none): 30.5 nM

UAUAUAUAGUAAGGAUAUGUAAUUAUUUUGUAAACAGAAGGUACUGACAUGAGGAUCACCCAUGUUUUAGUGUGGGCAUGUAGA [JMF's solution 44] (Eterna round: R96, puzzle: Exclusion NG 1)
apparent KD of MS2 coat protein [1]: 84.5 nM

CAGUACUGAGGAUAUACAUGAGGAUCACCCAUGUGUUUUCUACUAGGAAACUAGGUAUGUAGAAGGCAGUACUG [Omei Ex3 Mod of Eli 4.27 v3] (Eterna round: R97, puzzle: Exclusion 3)
apparent KD of MS2 coat protein (input ligand: FMN 200 uM): 194 nM
apparent KD of MS2 coat protein (input ligand: none): 22.9 nM

GACAUGUGAGGAUAUUGCAUAUAGUUAUAAGUUCAGGGCGGCAAGAAGGCACAUGAGGAUCACCCAUGUACCUU [Eternabot (L2) Solution 81] (Eterna round: R97, puzzle: Exclusion 4)
apparent KD of MS2 coat protein (input ligand: FMN 200 uM): 18.7 nM
apparent KD of MS2 coat protein (input ligand: none): 15.3 nM
